Tests used:
[1] = target: Flag-tagged Snail1 (pCMV-Tag2B N-terminal Flag-tagged Snail1 expression vector, Addgene)
[2] = target: Strep-tagged Snail1 (pEXPR-IBA105-Snail1)
Chain of Strep-tagged Snail1 (pEXPR-IBA105-Snail1) (chain, as listed by the source): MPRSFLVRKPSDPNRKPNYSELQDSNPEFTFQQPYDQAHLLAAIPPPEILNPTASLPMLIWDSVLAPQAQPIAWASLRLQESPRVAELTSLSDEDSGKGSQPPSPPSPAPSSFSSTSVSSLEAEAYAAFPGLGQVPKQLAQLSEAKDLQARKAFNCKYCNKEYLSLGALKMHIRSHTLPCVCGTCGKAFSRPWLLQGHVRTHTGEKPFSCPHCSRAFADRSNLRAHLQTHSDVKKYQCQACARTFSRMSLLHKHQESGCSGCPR

Chain of Flag-tagged Snail1 (pCMV-Tag2B N-terminal Flag-tagged Snail1 expression vector, Addgene) (chain, as listed by the source): as above

B1: Strep-tagged WHEP-PRS domain of EPRS (pEXPR-IBA105-PRS) (protein)
chain: VEATKNETSAPFKERPTPSLNNNCTTSEDSLVLYNRVAVQGDVVRELKAKKAPKEDVDAAVKQLLSLKAEYKEKTGQEYKPGNPPAEIGQNISSNSSASILESKSLYDEVAAQGEVVRKLKAEKSPKAKINEAVECLLSLKAQYKEKTGKEYIPGQPPLSQSSDSSPTRNSEPAGLETPEAKVLFDKVASQGEVVRKLKTEKAPKDQVDIAVQELLQLKAQYKSLIGVEYKPVSATGAEDKDKKKKEKENKSEKQNKPQKQNDGQRKDPSKNQGGGLSSSGAGEGQGPKKQTRLGLEAKKEENLADWYSQVITKSEMIEYHDISGCYILRPWAYAIWEAIKDFFDAEIKKLGVENCYFPMFVSQSALEKEKTHVADFAPEVAWVTRSGKTELAEPIAIRPTSETVMYPAYAKWVQSHRDLPIKLNQWCNVVRWEFKHPQPFLRTREFLWQEGHSAFATMEEAAEEVLQILDLYAQVYEELLAIPVVKGRKTEKEKFAGGDYTTTIEAFISASGRAIQGGTSHHLGQNFSKMFEIVFEDPKIPGEKQFAYQNSWGLTTRTIGVMTMVHGDNMGLVLPPRVACVQVVIIPCGITNALSEEDKEALIAKCNDYRRRLLSVNIRVRADLRDNYSPGWKFNHWELKGVPIRLEVGPRDMKSCQFVAVRRDTGEKLTVAENEAETKLQAILEDIQVTLFTRASEDLKTHMVVANTMEDFQKILDSGKIVQIPFCGEIDCEDWIKKTTARDQDLEPGAPSMGAKSLCIPFKPLCELQPGAKCVCGKNPAKYYTLFGRSY
In the case of B1, the “Snail1 stability, anti-Flag immunoblot (HEK293T)” value [1] is reported as “the WHEP-PRS fragment rather than ERS-WHEP fragment in the EPRS more contributed to the Snail1 stability”.

B2: 2× Strep-tagged EPRS (pEXPR-2×IBA105-EPRS) (protein)
chain: MATLSLTVNSGDPPLGALLAVEHVKDDVSISVEEGKENILHVSENVIFTDVNSILRYLARVATTAGLYGSNLMEHTEIDHWLEFSATKLSSCDSFTSTINELNHCLSLRTYLVGNSLSLADLCVWATLKGNAAWQEQLKQKKAPVHVKRWFGFLEAQQAFQSVGTKWDVSTTKARVAPEKKQDVGKFVELPGAEMGKVTVRFPPEASGYLHIGHAKAALLNQHYQVNFKGKLIMRFDDTNPEKEKEDFEKVILEDVAMLHIKPDQFTYTSDHFETIMKYAEKLIQEGKAYVDDTPAEQMKAEREQRIDSKHRKNPIEKNLQMWEEMKKGSQFGQSCCLRAKIDMSSNNGCMRDPTLYRCKIQPHPRTGNKYNVYPTYDFACPIVDSIEGVTHALRTTEYHDRDEQFYWIIEALGIRKPYIWEYSRLNLNNTVLSKRKLTWFVNEGLVDGWDDPRFPTVRGVLRRGMTVEGLKQFIAAQGSSRSVVNMEWDKIWAFNKKVIDPVAPRYVALLKKEVIPVNVPEAQEEMKEVAKHPKNPEVGLKPVWYSPKVFIEGADAETFSEGEMVTFINWGNLNITKIHKNADGKIISLDAKLNLENKDYKKTTKVTWLAETTHALPIPVICVTYEHLITKPVLGKDEDFKQYVNKNSKHEELMLGDPCLKDLKKGDIIQLQRRGFFICDQPYEPVSPYSCKEAPCVLIYIPDGHTKEMPTSGSKEKTKVEATKNETSAPFKERPTPSLNNNCTTSEDSLVLYNRVAVQGDVVRELKAKKAPKEDVDAAVKQLLSLKAEYKEKTGQEYKPGNPPAEIGQNISSNSSASILESKSLYDEVAAQGEVVRKLKAEKSPKAKINEAVECLLSLKAQYKEKTGKEYIPGQPPLSQSSDSSPTRNSEPAGLETPEAKVLFDKVASQGEVVRKLKTEKAPKDQVDIAVQELLQLKAQYKSLIGVEYKPVSATGAEDKDKKKKEKENKSEKQNKPQKQNDGQRKDPSKNQGGGLSSSGAGEGQGPKKQTRLGLEAKKEENLADWYSQVITKSEMIEYHDISGCYILRPWAYAIWEAIKDFFDAEIKKLGVENCYFPMFVSQSALEKEKTHVADFAPEVAWVTRSGKTELAEPIAIRPTSETVMYPAYAKWVQSHRDLPIKLNQWCNVVRWEFKHPQPFLRTREFLWQEGHSAFATMEEAAEEVLQILDLYAQVYEELLAIPVVKGRKTEKEKFAGGDYTTTIEAFISASGRAIQGGTSHHLGQNFSKMFEIVFEDPKIPGEKQFAYQNSWGLTTRTIGVMTMVHGDNMGLVLPPRVACVQVVIIPCGITNALSEEDKEALIAKCNDYRRRLLSVNIRVRADLRDNYSPGWKFNHWELKGVPIRLEVGPRDMKSCQFVAVRRDTGEKLTVAENEAETKLQAILEDIQVTLFTRASEDLKTHMVVANTMEDFQKILDSGKIVQIPFCGEIDCEDWIKKTTARDQDLEPGAPSMGAKSLCIPFKPLCELQPGAKCVCGKNPAKYYTLFGRSY
In the case of B2, the “protein expression level of Snail1, anti-Flag immunoblot (HEK293T)” value [1] is reported as “the protein expression level of Snail1 increased more when overexpressed together with EPRS through co-transfection than when overexpressed alone”.

B3: Flag-tagged EPRS (human Flag-tagged EPRS expression vector, Origene) (protein)
chain: MATLSLTVNSGDPPLGALLAVEHVKDDVSISVEEGKENILHVSENVIFTDVNSILRYLARVATTAGLYGSNLMEHTEIDHWLEFSATKLSSCDSFTSTINELNHCLSLRTYLVGNSLSLADLCVWATLKGNAAWQEQLKQKKAPVHVKRWFGFLEAQQAFQSVGTKWDVSTTKARVAPEKKQDVGKFVELPGAEMGKVTVRFPPEASGYLHIGHAKAALLNQHYQVNFKGKLIMRFDDTNPEKEKEDFEKVILEDVAMLHIKPDQFTYTSDHFETIMKYAEKLIQEGKAYVDDTPAEQMKAEREQRIDSKHRKNPIEKNLQMWEEMKKGSQFGQSCCLRAKIDMSSNNGCMRDPTLYRCKIQPHPRTGNKYNVYPTYDFACPIVDSIEGVTHALRTTEYHDRDEQFYWIIEALGIRKPYIWEYSRLNLNNTVLSKRKLTWFVNEGLVDGWDDPRFPTVRGVLRRGMTVEGLKQFIAAQGSSRSVVNMEWDKIWAFNKKVIDPVAPRYVALLKKEVIPVNVPEAQEEMKEVAKHPKNPEVGLKPVWYSPKVFIEGADAETFSEGEMVTFINWGNLNITKIHKNADGKIISLDAKLNLENKDYKKTTKVTWLAETTHALPIPVICVTYEHLITKPVLGKDEDFKQYVNKNSKHEELMLGDPCLKDLKKGDIIQLQRRGFFICDQPYEPVSPYSCKEAPCVLIYIPDGHTKEMPTSGSKEKTKVEATKNETSAPFKERPTPSLNNNCTTSEDSLVLYNRVAVQGDVVRELKAKKAPKEDVDAAVKQLLSLKAEYKEKTGQEYKPGNPPAEIGQNISSNSSASILESKSLYDEVAAQGEVVRKLKAEKSPKAKINEAVECLLSLKAQYKEKTGKEYIPGQPPLSQSSDSSPTRNSEPAGLETPEAKVLFDKVASQGEVVRKLKTEKAPKDQVDIAVQELLQLKAQYKSLIGVEYKPVSATGAEDKDKKKKEKENKSEKQNKPQKQNDGQRKDPSKNQGGGLSSSGAGEGQGPKKQTRLGLEAKKEENLADWYSQVITKSEMIEYHDISGCYILRPWAYAIWEAIKDFFDAEIKKLGVENCYFPMFVSQSALEKEKTHVADFAPEVAWVTRSGKTELAEPIAIRPTSETVMYPAYAKWVQSHRDLPIKLNQWCNVVRWEFKHPQPFLRTREFLWQEGHSAFATMEEAAEEVLQILDLYAQVYEELLAIPVVKGRKTEKEKFAGGDYTTTIEAFISASGRAIQGGTSHHLGQNFSKMFEIVFEDPKIPGEKQFAYQNSWGLTTRTIGVMTMVHGDNMGLVLPPRVACVQVVIIPCGITNALSEEDKEALIAKCNDYRRRLLSVNIRVRADLRDNYSPGWKFNHWELKGVPIRLEVGPRDMKSCQFVAVRRDTGEKLTVAENEAETKLQAILEDIQVTLFTRASEDLKTHMVVANTMEDFQKILDSGKIVQIPFCGEIDCEDWIKKTTARDQDLEPGAPSMGAKSLCIPFKPLCELQPGAKCVCGKNPAKYYTLFGRSY
For B3, the “ubiquitination of Snail1 (streptavidin pull-down, anti-HA immunoblot)” value [2] was “the ubiquitination was reduced in the EPRS overexpressed experimental group”.

B4: Strep-tagged ERS-WHEP domain of EPRS (pEXPR-IBA105-ERS) (protein)
chain: MATLSLTVNSGDPPLGALLAVEHVKDDVSISVEEGKENILHVSENVIFTDVNSILRYLARVATTAGLYGSNLMEHTEIDHWLEFSATKLSSCDSFTSTINELNHCLSLRTYLVGNSLSLADLCVWATLKGNAAWQEQLKQKKAPVHVKRWFGFLEAQQAFQSVGTKWDVSTTKARVAPEKKQDVGKFVELPGAEMGKVTVRFPPEASGYLHIGHAKAALLNQHYQVNFKGKLIMRFDDTNPEKEKEDFEKVILEDVAMLHIKPDQFTYTSDHFETIMKYAEKLIQEGKAYVDDTPAEQMKAEREQRIDSKHRKNPIEKNLQMWEEMKKGSQFGQSCCLRAKIDMSSNNGCMRDPTLYRCKIQPHPRTGNKYNVYPTYDFACPIVDSIEGVTHALRTTEYHDRDEQFYWIIEALGIRKPYIWEYSRLNLNNTVLSKRKLTWFVNEGLVDGWDDPRFPTVRGVLRRGMTVEGLKQFIAAQGSSRSVVNMEWDKIWAFNKKVIDPVAPRYVALLKKEVIPVNVPEAQEEMKEVAKHPKNPEVGLKPVWYSPKVFIEGADAETFSEGEMVTFINWGNLNITKIHKNADGKIISLDAKLNLENKDYKKTTKVTWLAETTHALPIPVICVTYEHLITKPVLGKDEDFKQYVNKNSKHEELMLGDPCLKDLKKGDIIQLQRRGFFICDQPYEPVSPYSCKEAPCVLIYIPDGHTKEMPTSGSKEKTKVEATKNETSAPFKERPTPSLNNNCTTSEDSLVLYNRVAVQGDVVRELKAKKAPKEDVDAAVKQLLSLKAEYKEKTGQEYKPGNPPAEIGQNISSNSSASILESKSLYDEVAAQGEVVRKLKAEKSPKAKINEAVECLLSLKAQYKEKTGKEYIPGQPPLSQSSDSSPTRNSEPAGLETPEAKVLFDKVASQGEVVRKLKTEKAPKDQVDIAVQELLQLKAQYKSLIGVEYKPVSATGAEDKDKKKKEKENKSEKQNKPQKQNDGQRKDPSKNQGGGLSSS
B4 was tested, and the “Snail1 stability, anti-Flag immunoblot (HEK293T)” value [1] was “the WHEP-PRS fragment rather than ERS-WHEP fragment in the EPRS more contributed to the Snail1 stability”.
